# Measured values published in paper PMC12040651, “cAMP-independent Crp homolog adds to the multi-layer regulatory network in Porphyromonas gingivalis”.
# T1: CrpPg (Crp homolog) (Porphyromonas gingivalis A7436, UniProt Q7MAW7 1-232)
# T1 sequence: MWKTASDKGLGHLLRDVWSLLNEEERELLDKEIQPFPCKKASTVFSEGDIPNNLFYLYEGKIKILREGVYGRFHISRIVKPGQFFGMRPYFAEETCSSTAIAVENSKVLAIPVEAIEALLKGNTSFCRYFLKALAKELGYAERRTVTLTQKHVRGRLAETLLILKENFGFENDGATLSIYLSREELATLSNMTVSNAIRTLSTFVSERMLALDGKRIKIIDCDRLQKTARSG
# B1: crpPg promoter fragment 4 (dsDNA)
# DNA 1: CTCATAATAATAGTTCTACGGCCTTTCTTCCTCGTTGTACGGATTTGAGCAAATAGACATTCTCTGAACACTTATATGTGGAAGACAG
# DNA 2: CTGTCTTCCACATATAAGTGTTCAGAGAATGTCTATTTGCTCAAATCCGTACAACGAGGAAGAAAGGCCGTAGAACTATTATTATGAG
# B2: mfa promoter fragment 5 (dsDNA)
# DNA 1: ATTTAATATTAATCCTTTTAAACATTTGGCTTATGAAGTTAAACAAAATGTTTTTGGTCGGAGCATTGCTCTCATTGGGCT
# DNA 2: AGCCCAATGAGAGCAATGCTCCGACCAAAAACATTTTGTTTAACTTCATAAGCCAAATGTTTAAAAGGATTAATATTAAAT
# What was measured:
# [1] = biological target: Crp^Pg protein (Porphyromonas gingivalis A7436 Crp homolog, CRP/FNR superfamily) (Porphyromonas gingivalis A7436); assay: cross-linking; 10 uM purified Crp^Pg in PBS, 30 min at room temperature, without or with 1 mM cAMP, then 0.2% formaldehyde for 1 h at 37°C; SDS-PAGE with CBB G-250 staining; monomer to dimer
# CrpPg (Crp homolog) = biological target: T1, CrpPg (Crp homolog); assay: EMSA; conditions: protein: recombinant, tags: 6xHis-MBP N-terminal, removed with Factor Xa, chain copies: 2, blunt
molecule,measurement,setting,value
"Crp^Pg protein (Porphyromonas gingivalis A7436 Crp homolog, CRP/FNR superfamily) (natural protein)",stoichiometry N,[1],2
B1,binding result,CrpPg (Crp homolog); label: 5' biotin via PBM_0206 (probe),binds
B2,binding result,CrpPg (Crp homolog); label: 5' biotin via PBM_0217 (probe),binds
